The results in this text go back to article PMC8103780.

Some results are limits rather than exact numbers.

This data set deals with SARS-CoV-2 nucleocapsid protein (N-protein) (SARS-CoV-2, UniProt P0DTC9 1-419). Kind of data set: SV-AUC.
TTTTTTTTTT (ssDNA) [T10]: the Kd (as a rule, the constant that tells how readily two partners part at equilibrium) was below 100 nM.

The molecule GTGT (ssDNA) [(GT)2] had an equilibrium dissociation constant (Kd) above 10000 nM.

On to TTTTTT (ssDNA) [T6], for which the dissociation constant Kd stood at 290 nM.
